Measurements reported in patent US20180250358A1, “GHRH AGONISTS FOR THE TREATMENT OF ISCHEMIC DISORDERS” (published 2018).
Non-standard residues stand in square brackets, D forms with d. No end group written: not given here. *: point of attachment. Desaminotyrosyl = O=C(CCc1ccc(O)cc1)*; NMeY = CN[C@@H](Cc1ccc(O)cc1)C(=O)O; hArg = N=C(N)NCCCC[C@H](N)C(=O)O; Agmatine = N=C(N)NCCCCN*; Nle = CCCC[C@H](N)C(=O)O; Orn = NCCC[C@H](N)C(=O)O; Abu = CC[C@H](N)C(=O)O

T1: GHRH receptor of human pituitary membranes (human, UniProt Q02643)
T1 sequence: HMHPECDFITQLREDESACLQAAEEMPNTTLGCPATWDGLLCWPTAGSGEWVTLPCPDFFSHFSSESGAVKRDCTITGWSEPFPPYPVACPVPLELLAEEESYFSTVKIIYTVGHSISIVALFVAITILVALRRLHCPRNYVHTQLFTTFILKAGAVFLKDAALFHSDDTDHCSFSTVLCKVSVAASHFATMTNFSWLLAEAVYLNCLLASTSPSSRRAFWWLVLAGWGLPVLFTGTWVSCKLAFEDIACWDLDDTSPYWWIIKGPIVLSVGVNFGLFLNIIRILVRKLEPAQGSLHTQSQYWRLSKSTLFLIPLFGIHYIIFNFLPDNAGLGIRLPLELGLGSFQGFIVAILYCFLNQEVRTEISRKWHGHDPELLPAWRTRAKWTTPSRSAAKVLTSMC


Legend:
[1] = target: T1, GHRH receptor of human pituitary …; experiment: competition vs 125I-JV-1-42, human pituitary membranes
Description: (§1) Normal human pituitaries were purchased from the National Hormone and Peptide Program (A.F. Parlow, Los Angeles, County Harbor-UCLA Medical Center, Torrance, Calif.).

[2] = target: T1, GHRH receptor of human pituitary …; experiment: competition vs 125I-[His1,Nle27]hGHRH(1-32)NH2, human pituitary membranes
Description: Normal human pituitary was purchased from the National Hormone and Peptide Program (UCLA Medical Center, Torrance, Calif.).

[3] = target: T1, GHRH receptor of human pituitary …; experiment: competition vs 125I-JV-1-42, human pituitary membranes; remark: listed apart in the source
Description: The final binding affinities were expressed as IC₅₀ values and were calculated by using the LIGAND PC computerized curve-fitting program of Munson and Rodbard as modified by McPherson.

[4] = target: T1, GHRH receptor of human pituitary …; experiment: competition vs 125I-[His1,Nle27]hGHRH(1-32)NH2, human pituitary membranes; remark: listed apart in the source
Description: as §1

IC50 [1] | relative affinity (binding potency) vs JI-38 [1] | IC50 [2] | relative affinity (binding potency) compared to JI-38 [2] | relative affinity (binding potency) compared to hGHRH(1-29) [2] | IC50 [3] | relative affinity (binding potency) vs GHRH [3] | relative affinity (binding potency) vs JI-38 [3] | IC50 [4] | relative affinity (binding potency) vs GHRH [4] | relative affinity (binding potency) vs JI-38 [4] | Binder
2.74 nM | 1.59 vs JI-38=1 | 2.6 nM | 1.05 vs JI-38=1 | 2.94 vs hGHRH(1-29)NH2=1 |  |  |  |  |  |  | [Desaminotyrosyl][dA]DAIFTQSYR[Orn]VL[Abu]QLSAR[Orn]LLQDI[Nle]D[dR]-NHMe (SMILES CCCC[C@H](NC(=O)[C@@H](NC(=O)[C@H](CC(=O)O)NC(=O)[C@H](CCC(N)=O)NC(=O)[C@H](CC(C)C)NC(=O)[C@H](CC(C)C)NC(=O)[C@H](CCCN)NC(=O)[C@H](CCCNC(=N)N)NC(=O)[C@H](C)NC(=O)[C@H](CO)NC(=O)[C@H](CC(C)C)NC(=O)[C@H](CCC(N)=O)NC(=O)[C@H](CC)NC(=O)[C@H](CC(C)C)NC(=O)[C@@H](NC(=O)[C@H](CCCN)NC(=O)[C@H](CCCNC(=N)N)NC(=O)[C@H](Cc1ccc(O)cc1)NC(=O)[C@H](CO)NC(=O)[C@H](CCC(N)=O)NC(=O)[C@@H](NC(=O)[C@H](Cc1ccccc1)NC(=O)[C@@H](NC(=O)[C@H](C)NC(=O)[C@H](CC(=O)O)NC(=O)[C@@H](C)NC(=O)CCc1ccc(O)cc1)[C@@H](C)CC)[C@@H](C)O)C(C)C)[C@@H](C)CC)C(=O)N[C@@H](CC(=O)O)C(=O)N[C@H](CCCNC(=N)N)C(=O)NC) [P-27401 [Dat^1, D-Ala^2, Gln^8, Orn^12, Abu^15, Orn^21, Nle^27, Asp^28, D-Arg^29]hGHRH(1-29)NH-CH3]
0.52 nM | 8.37 vs JI-38=1 |  |  |  | 0.04 nM | 102 vs GHRH(1-29)=1 | 42.7 vs JI-38=1 |  |  |  | [Desaminotyrosyl][dA]DAIFTQSYR[Orn]VL[Abu]QLSAR[Orn]LLQDI[Nle]D[Agmatine] (SMILES CCCC[C@H](NC(=O)[C@@H](NC(=O)[C@H](CC(=O)O)NC(=O)[C@H](CCC(N)=O)NC(=O)[C@H](CC(C)C)NC(=O)[C@H](CC(C)C)NC(=O)[C@H](CCCN)NC(=O)[C@H](CCCNC(=N)N)NC(=O)[C@H](C)NC(=O)[C@H](CO)NC(=O)[C@H](CC(C)C)NC(=O)[C@H](CCC(N)=O)NC(=O)[C@H](CC)NC(=O)[C@H](CC(C)C)NC(=O)[C@@H](NC(=O)[C@H](CCCN)NC(=O)[C@H](CCCNC(=N)N)NC(=O)[C@H](Cc1ccc(O)cc1)NC(=O)[C@H](CO)NC(=O)[C@H](CCC(N)=O)NC(=O)[C@@H](NC(=O)[C@H](Cc1ccccc1)NC(=O)[C@@H](NC(=O)[C@H](C)NC(=O)[C@H](CC(=O)O)NC(=O)[C@@H](C)NC(=O)CCc1ccc(O)cc1)[C@@H](C)CC)[C@@H](C)O)C(C)C)[C@@H](C)CC)C(=O)N[C@@H](CC(=O)O)C(=O)NCCCCNC(=N)N) [P-20350 [Dat^1, D-Ala^2, Gln^8, Orn^12, Abu^15, Orn^21, Nle^27, Asp^28, Agm^29]hGHRH(1-29)NH2]
1.44 nM | 3.02 vs JI-38=1 | 2.85 nM | 0.96 vs JI-38=1 | 2.68 vs hGHRH(1-29)NH2=1 |  |  |  |  |  |  | YADAIFTNSYRKVLGQLSARKLLQDIMSRQ (Dat^1; D-Abu^2; Orn^12; Abu^15; Orn^21; Nle^27; Gab^30 (in place of Gln^30); C-terminal -NH2) [P-25504 [Dat^1, D-Abu^2, Orn^12, Abu^15, Orn^21, Nle^27, Gab^30]hGHRH(1-30)NH2]
0.82 nM | 5.3 vs JI-38=1 | 1.19 nM | 2.3 vs JI-38=1 | 6.42 vs hGHRH(1-29)NH2=1 |  |  |  |  |  |  | [NMeY][dA]DAIFTQSYR[Orn]VL[Abu]QLSAR[Orn]LLQDI[Nle]D[Agmatine] [P-20361 [N-Me-Tyr^1, D-Ala^2, Gln^8, Orn^12, Abu^15, Orn^21, Nle^27, Asp^28, Agm^29]hGHRH(1-29)NH2]
 |  |  |  |  |  |  |  | 0.07 nM | 84.5 vs GHRH(1-29)=1 | 27.8 vs JI-38=1 | [Desaminotyrosyl][dA]DAIFTTSYR[Orn]VL[Abu]QLSAR[Orn]LLQDI[Nle]DR[hArg]-NH2 (SMILES CCCC[C@H](NC(=O)[C@@H](NC(=O)[C@H](CC(=O)O)NC(=O)[C@H](CCC(N)=O)NC(=O)[C@H](CC(C)C)NC(=O)[C@H](CC(C)C)NC(=O)[C@H](CCCN)NC(=O)[C@H](CCCNC(=N)N)NC(=O)[C@H](C)NC(=O)[C@H](CO)NC(=O)[C@H](CC(C)C)NC(=O)[C@H](CCC(N)=O)NC(=O)[C@H](CC)NC(=O)[C@H](CC(C)C)NC(=O)[C@@H](NC(=O)[C@H](CCCN)NC(=O)[C@H](CCCNC(=N)N)NC(=O)[C@H](Cc1ccc(O)cc1)NC(=O)[C@H](CO)NC(=O)[C@@H](NC(=O)[C@@H](NC(=O)[C@H](Cc1ccccc1)NC(=O)[C@@H](NC(=O)[C@H](C)NC(=O)[C@H](CC(=O)O)NC(=O)[C@@H](C)NC(=O)CCc1ccc(O)cc1)[C@@H](C)CC)[C@@H](C)O)[C@@H](C)O)C(C)C)[C@@H](C)CC)C(=O)N[C@@H](CC(=O)O)C(=O)N[C@@H](CCCNC(=N)N)C(=O)N[C@@H](CCCCNC(=N)N)C(N)=O) [P-23254 [Dat^1, D-Ala^2, Thr^8, Orn^12, Abu^15, Orn^21, Nle^27, Asp^28, Har^30]hGHRH(1-30)NH2]
